Series [1] addresses T1, PA;PB1 (in PA-PB1-PB2(1-116));PB2(1-116) (Influenza A virus A/Victoria/3/1975(H3N2);Influenza A virus A/Victoria/3/1975(H3N2);Influenza A virus A/Victoria/3/1975(H3N2)) (UniProt P03432+H9XIJ5). The series can be described thus: filter binding.
Series [2] deals with PA;PB1(1-686) (Influenza A virus A/Victoria/3/1975(H3N2);Influenza A virus A/Victoria/3/1975(H3N2)) (UniProt P03432). The series can be described thus: filter binding.
Another series deals with NP. The series can be described thus: fluorescence anisotropy. The settings on record: 5'-monophosphate.
Series [3] deals with T1, PA;PB1 (in PA-PB1-PB2(1-116));PB2(1-116) (Influenza A virus A/Victoria/3/1975(H3N2);Influenza A virus A/Victoria/3/1975(H3N2);Influenza A virus A/Victoria/3/1975(H3N2)). The series can be described thus: fluorescence anisotropy. On the technique in general: In fluorescence polarisation assays a small probe gives low polarisation when free and higher when bound to something large.

The target in series [4] is PA;PB1(1-686) (Influenza A virus A/Victoria/3/1975(H3N2);Influenza A virus A/Victoria/3/1975(H3N2)) (UniProt P03432). The series can be described thus: fluorescence anisotropy. The following applies: 5'-monophosphate.
Series [5] concerns PA;PB1(1-686);RanBP5 (Influenza A virus A/Victoria/3/1975(H3N2);Influenza A virus A/Victoria/3/1975(H3N2);Homo sapiens), P03432+O00410-3. The series can be described thus: fluorescence anisotropy. The following applies: 5'-monophosphate.

Broadly, the pKd is −log10 of the Kd, conventionally taken in molar units. A higher pKd goes with a low Kd.

pKd: −log10 of the molar value. Some results are limits rather than exact numbers.

T1 sequence (P03432 whole entry, looked up, chain 2 of 2, other chains not shown): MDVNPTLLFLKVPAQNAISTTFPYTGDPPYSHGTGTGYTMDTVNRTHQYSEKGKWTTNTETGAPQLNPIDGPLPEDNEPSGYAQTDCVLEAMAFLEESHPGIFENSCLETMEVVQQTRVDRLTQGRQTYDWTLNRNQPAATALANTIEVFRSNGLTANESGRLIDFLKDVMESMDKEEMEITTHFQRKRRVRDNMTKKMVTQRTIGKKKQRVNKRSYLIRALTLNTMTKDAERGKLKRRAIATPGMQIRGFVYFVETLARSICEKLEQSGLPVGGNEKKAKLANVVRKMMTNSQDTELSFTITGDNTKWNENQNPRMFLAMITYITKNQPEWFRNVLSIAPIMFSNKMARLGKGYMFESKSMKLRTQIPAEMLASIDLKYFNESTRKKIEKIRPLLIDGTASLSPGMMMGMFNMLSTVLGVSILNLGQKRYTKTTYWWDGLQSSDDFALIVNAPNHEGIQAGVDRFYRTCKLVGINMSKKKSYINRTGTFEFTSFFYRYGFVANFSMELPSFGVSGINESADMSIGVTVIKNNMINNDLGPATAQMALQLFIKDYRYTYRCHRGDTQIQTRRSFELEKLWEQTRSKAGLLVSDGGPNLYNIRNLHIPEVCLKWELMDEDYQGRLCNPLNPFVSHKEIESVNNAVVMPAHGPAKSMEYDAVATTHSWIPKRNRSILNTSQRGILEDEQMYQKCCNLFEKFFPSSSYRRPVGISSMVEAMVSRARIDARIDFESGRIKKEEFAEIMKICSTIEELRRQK
Sequence of PA;PB1(1-686) (Influenza A virus A/Victoria/3/1975(H3N2);Influenza A virus A/Victoria/3/1975(H3N2)) (P03432 whole entry, looked up): as the sequence (P03432 whole entry, looked up, chain 2 of 2, other chains not shown) above
Sequence of PA;PB1(1-686);RanBP5 (Influenza A virus A/Victoria/3/1975(H3N2);Influenza A virus A/Victoria/3/1975(H3N2);Homo sapiens), P03432+O00410-3 (O00410 whole entry, looked up, chain 1 of 2): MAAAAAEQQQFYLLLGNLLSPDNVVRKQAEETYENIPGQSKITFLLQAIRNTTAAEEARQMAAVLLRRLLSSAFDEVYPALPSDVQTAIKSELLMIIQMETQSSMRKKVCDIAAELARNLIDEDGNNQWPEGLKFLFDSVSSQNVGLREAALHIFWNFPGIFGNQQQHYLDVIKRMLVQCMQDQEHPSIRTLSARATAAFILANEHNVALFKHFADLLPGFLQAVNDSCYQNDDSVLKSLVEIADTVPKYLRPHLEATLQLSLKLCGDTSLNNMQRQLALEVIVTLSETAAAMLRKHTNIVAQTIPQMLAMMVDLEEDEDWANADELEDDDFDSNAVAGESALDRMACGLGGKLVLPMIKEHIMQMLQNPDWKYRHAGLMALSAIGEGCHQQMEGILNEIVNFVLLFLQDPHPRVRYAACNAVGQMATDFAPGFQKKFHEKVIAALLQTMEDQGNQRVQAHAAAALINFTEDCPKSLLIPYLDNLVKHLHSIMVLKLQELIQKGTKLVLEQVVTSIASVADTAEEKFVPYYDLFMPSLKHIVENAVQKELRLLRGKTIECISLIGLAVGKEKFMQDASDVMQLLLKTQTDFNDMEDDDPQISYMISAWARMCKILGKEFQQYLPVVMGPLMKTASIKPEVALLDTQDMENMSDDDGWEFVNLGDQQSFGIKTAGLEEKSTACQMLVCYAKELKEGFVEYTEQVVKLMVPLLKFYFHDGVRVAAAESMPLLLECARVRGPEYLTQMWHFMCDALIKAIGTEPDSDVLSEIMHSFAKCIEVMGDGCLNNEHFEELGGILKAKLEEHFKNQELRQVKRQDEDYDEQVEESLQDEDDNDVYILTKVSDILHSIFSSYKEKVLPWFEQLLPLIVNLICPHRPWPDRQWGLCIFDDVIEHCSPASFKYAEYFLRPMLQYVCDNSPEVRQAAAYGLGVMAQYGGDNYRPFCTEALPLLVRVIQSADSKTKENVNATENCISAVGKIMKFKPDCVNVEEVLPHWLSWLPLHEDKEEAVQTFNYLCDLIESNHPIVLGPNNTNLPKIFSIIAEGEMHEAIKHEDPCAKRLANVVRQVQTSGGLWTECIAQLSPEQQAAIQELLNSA
Sequence of PA;PB1(1-686);RanBP5 (Influenza A virus A/Victoria/3/1975(H3N2);Influenza A virus A/Victoria/3/1975(H3N2);Homo sapiens), P03432+O00410-3 (P03432 whole entry, looked up, chain 2 of 2): as the sequence (P03432 whole entry, looked up, chain 2 of 2, other chains not shown) above

Regarding AUACCCUGCUUUUGCU [3'-vRNAp (32P)], the pKd in series [1] was 7.77.
Turning to AGUAGAAACAAGGGUA [5'-vRNAp (32P)], the results for the pKd in series [1] and in series [2] were 9.72 and 9.42, respectively.
Regarding UCUCUCUCUCUCUCUCUC [polyUC], the pKd with NP was 7.54; in series [3] (5'-monophosphate) it was < 6.00.
On to AGUAGAAACAAGGGUA [5'-vRNAp], for which the figures for the pKd in series [3] (5'-monophosphate), in series [4] and in series [5] were 9.08, 9.06 and < 6.00, respectively.
AUACCCUGCUUUUGCU [3'-vRNAp] showed a pKd in series [3] of 7.44.
